From patent publication US20090191117A1

Columns and labels:
[1] = target: αvβ3 and αvβ5 integrins on A375S2 human melanoma cells (human) (UniProt P06756); experiment: cell-based or functional assay
[2] = target: αVβ3 and αVβ5 integrins on M21 human melanoma cells (human) (UniProt P06756); experiment: 125-I antibody saturation binding to M21 cells, n = 8
[3] = target: αvβ3 and αvβ5 integrins on A375S2 human melanoma cells (human) (UniProt P06756); experiment: 125-I antibody saturation binding to A375S2 cells, n = 7
[4] = target: αVβ3 and αVβ5 integrins on M21 human melanoma cells (human) (UniProt P06756); experiment: 125-I Fab saturation binding to M21 cells, n = 7
[5] = target: αvβ3 and αvβ5 integrins on A375S2 human melanoma cells (human) (UniProt P06756); experiment: 125-I Fab saturation binding to A375S2 cells, n = 6
[6] = target: αVβ3 and αVβ5 integrins on M21 human melanoma cells (human) (UniProt P06756); experiment: radiolabelled antibody binding to M21 cells, n = 2
[7] = target: αvβ5 integrin on HT-29 human colon carcinoma cells (human) (UniProt P06756); experiment: radiolabelled antibody binding to HT-29 cells, n = 1
[8] = target: αvβ3 and αvβ5 integrins on A375S2 human melanoma cells (human) (UniProt P06756); experiment: radiolabelled antibody binding to A375S2 cells, n = 4
[9] = target: αvβ3 and αvβ5 integrins on A375S2 human melanoma cells (human) (UniProt P06756); experiment: radiolabelled antibody binding to A375S2 cells, n = 2

Sequence of αvβ3 and αvβ5 integrins on A375S2 human melanoma cells (human) (P06756 31-1048 A375S, chain 1 of 3): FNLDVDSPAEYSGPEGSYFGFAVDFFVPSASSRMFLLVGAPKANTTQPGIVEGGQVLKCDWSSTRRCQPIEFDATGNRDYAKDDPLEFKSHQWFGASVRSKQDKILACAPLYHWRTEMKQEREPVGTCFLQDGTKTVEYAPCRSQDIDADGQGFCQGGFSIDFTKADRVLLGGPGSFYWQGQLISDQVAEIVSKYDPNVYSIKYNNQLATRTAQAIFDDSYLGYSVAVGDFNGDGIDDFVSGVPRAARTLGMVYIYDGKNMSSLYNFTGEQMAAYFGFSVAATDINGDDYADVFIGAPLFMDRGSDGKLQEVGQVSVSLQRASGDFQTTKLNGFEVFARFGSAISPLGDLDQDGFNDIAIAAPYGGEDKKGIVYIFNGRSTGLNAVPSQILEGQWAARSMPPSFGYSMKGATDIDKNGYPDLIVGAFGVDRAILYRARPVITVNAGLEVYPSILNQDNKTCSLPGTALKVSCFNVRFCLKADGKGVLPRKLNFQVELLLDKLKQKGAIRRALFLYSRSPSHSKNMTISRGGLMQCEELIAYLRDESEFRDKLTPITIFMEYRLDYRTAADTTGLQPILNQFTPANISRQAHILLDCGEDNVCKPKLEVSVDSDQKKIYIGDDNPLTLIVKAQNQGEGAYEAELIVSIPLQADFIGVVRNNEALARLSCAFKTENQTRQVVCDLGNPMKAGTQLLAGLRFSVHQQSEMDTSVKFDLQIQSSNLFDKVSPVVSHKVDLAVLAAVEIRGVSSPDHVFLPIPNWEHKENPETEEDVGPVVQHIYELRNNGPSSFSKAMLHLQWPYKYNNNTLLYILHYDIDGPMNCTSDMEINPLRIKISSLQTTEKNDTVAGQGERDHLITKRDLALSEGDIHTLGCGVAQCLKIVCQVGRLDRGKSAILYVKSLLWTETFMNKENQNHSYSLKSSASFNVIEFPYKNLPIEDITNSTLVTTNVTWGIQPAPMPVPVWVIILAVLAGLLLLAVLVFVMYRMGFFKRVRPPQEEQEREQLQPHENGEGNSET
Sequence of αvβ3 and αvβ5 integrins on A375S2 human melanoma cells (human) (P05106 27-788, chain 2 of 3, further chain): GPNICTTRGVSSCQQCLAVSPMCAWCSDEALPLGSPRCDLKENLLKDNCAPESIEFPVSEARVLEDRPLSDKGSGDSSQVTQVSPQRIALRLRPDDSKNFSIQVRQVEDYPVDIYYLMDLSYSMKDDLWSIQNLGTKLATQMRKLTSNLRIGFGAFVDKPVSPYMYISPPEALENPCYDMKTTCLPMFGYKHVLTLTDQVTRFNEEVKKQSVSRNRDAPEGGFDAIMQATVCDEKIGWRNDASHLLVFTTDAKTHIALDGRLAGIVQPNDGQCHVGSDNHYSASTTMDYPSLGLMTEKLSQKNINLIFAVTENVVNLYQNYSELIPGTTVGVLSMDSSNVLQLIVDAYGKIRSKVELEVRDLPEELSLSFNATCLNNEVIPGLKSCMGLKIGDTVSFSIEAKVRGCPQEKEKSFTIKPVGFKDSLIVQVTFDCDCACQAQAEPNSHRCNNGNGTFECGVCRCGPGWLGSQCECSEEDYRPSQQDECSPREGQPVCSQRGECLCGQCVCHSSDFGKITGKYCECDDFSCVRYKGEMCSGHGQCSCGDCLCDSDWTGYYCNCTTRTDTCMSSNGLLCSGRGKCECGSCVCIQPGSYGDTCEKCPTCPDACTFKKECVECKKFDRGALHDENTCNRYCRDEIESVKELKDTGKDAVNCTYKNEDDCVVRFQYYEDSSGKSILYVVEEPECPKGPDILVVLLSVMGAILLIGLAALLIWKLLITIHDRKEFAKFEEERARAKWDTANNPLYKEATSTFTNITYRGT
Sequence of αvβ3 and αvβ5 integrins on A375S2 human melanoma cells (human) (P18084 24-799, chain 3 of 3, further chain): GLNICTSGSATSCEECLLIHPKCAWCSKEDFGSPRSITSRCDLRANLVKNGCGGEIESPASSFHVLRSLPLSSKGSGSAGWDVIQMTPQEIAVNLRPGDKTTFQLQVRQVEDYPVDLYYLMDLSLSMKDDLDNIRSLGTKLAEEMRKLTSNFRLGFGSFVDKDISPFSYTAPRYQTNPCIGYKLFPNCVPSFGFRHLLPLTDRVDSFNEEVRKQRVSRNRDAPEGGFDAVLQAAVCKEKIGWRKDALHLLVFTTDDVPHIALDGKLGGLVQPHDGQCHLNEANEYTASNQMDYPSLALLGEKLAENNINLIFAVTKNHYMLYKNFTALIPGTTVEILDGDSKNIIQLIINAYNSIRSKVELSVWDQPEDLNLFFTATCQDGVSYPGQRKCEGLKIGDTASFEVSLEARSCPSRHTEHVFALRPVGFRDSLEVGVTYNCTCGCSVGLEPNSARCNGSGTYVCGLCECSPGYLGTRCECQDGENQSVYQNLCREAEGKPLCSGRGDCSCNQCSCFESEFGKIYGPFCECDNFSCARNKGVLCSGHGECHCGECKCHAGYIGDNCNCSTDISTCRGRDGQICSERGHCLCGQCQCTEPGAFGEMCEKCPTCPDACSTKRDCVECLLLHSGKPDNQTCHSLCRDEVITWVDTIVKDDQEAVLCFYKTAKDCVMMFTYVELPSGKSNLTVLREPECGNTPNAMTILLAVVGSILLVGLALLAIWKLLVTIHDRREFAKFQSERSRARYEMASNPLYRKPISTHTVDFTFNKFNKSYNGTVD
Sequence of αvβ5 integrin on HT-29 human colon carcinoma cells (human) (P06756 31-1048, chain 1 of 2): as the sequence (P06756 31-1048 A375S, chain 1 of 3) above, with S345A counted along it
Sequence of αvβ5 integrin on HT-29 human colon carcinoma cells (human) (P18084 24-799, chain 2 of 2, further chain): as the sequence (P18084 24-799, chain 3 of 3, further chain) above

CNTO 95 (antibody)
A375S.2 cell adhesion to fibrin, percent of adhesion without antibody, antibody at 10 µg/ml [1]: 43.3%
A375S.2 cell adhesion to fibrinogen, percent of adhesion without antibody, antibody at 10 µg/ml [1]: 11.4%
A375S.2 cell adhesion to gelatin, percent of adhesion without antibody, antibody at 10 µg/ml [1]: 23.2%
A375S.2 cell adhesion to vitronectin, percent of adhesion without antibody, antibody at 10 µg/ml [1]: 1.4%
Receptors per cell (receptors per cell) [2]: 200000
Receptors per cell (receptors per cell) [3]: 120000

ReoPro (c7E3 Fab)
Receptors per cell (receptors per cell) [4]: 660000
Receptors per cell (receptors per cell) [5]: 370000

P1F6 (antibody)
Receptors per cell (receptors per cell) [6]: 44000
Receptors per cell (receptors per cell) [7]: 73000
Receptors per cell (receptors per cell) [8]: 70000

LM609 (antibody)
Receptors per cell (receptors per cell) [9]: 300000
